Numbering of substitutions follows the chain as printed.
B1: PRT-552 (protein)
chain: MANQEIRYSEETPKTITSVWTKGVTPPTDFIQNEDVLHAPYIANQGWYDITKTFNGKDDLLCGAATAGNMLHWWFDQNKEEIENYLKKHPEKQKINFNGEQMFDVKEAIDTKDSQTDSALFEYFKDKAFPYLSTKHLGVFPDHVIDMFINGYRLSLTNHGPTPVKRGTKDPRGGIFDAVFTRGDQSKLLTARHDFKEKTLNEISDLIKQELTEGKALGLSHTYANVRINHVINLWGADFNSEGNLEAIYVTDSDSNASIGMKKYYVGVNAAGKVAISAKEIEGDNIGAQVLGLFTLSTGQDIWNQTNLEHHHHHH
B2: PRT-558 (protein)
chain: B1 chain with K14S, V19I, D29Q, E80T, K87T, E122S, S186T, N304Q
B3: PRT-597 (protein)
chain: B1 chain with K14S, E81Q, A191S, S241A, E242N, A270S
B4: PRT-579 (protein)
chain: MANQEIRYSKATPSHITSVWTKGVTPPENFIYNEDVLHAPYLPNQGWYDITKTFNGKDDLLCGAATAGNMLHWWFDQNKEQIERYLKEHPEKQKINFNGEQMFDVKEAIDTKDSQTNSKLFEYFKDKAFPYLSTKHLGVFPDHVIDMFINGYRLSLTNHGPTPVKEQNKDPRGGIFDAVFTRGDQSKLLTSRHDFKEKTLNEISQLIKQELTEGKALGLSHTYANVRINHVINLWGADFNAEGNLEAIYVTDSDSNASIGMKKYYVGVNSAGKVAISAKEIEGDNIGAQVLGLFTLSTGQDIWQQTNLEHHHHHH
B5: PRT-601 (protein)
chain: MANQEIRYSEETPSTVTSVWTKGVTPPTDFIQNEDVLHAPYIANQGWYDITKTFNGKDDLLCGAATAGNMLHWWFDQNKEQIKNYLKKHPEKQKINFNGEQMFDVKEAIDTKNHQLDSALFEYFKDKAFPYLSTKHLGVFPDHVIDMFINGYRLSLTNHGPTPVKRGTKDPRGGIFDAVFTRGDQSKLLTSRHDFKEKNLNEISDLIKKELTEGKALGLSHTYANVRINHVINLWGADFNANGNLEAIYVTDSDSNASIGMKKYFVGVNSAGKVAISAKEIKGDNIGAQVLGLFTLSTGQDSWNQTNLEHHHHHH
B6: PRT-285 (protein)
chain: MVTSVWTKGVTPPAKFTQGEDVFHAPYDANQGWYDITKTFNGKDDLLCGAATAGNMLHWWFDQNKEKIEAYLKKHPDKQKIMFGDQELLDVRKVINTKGDQTNSELFNYFRDKAFPGLSARRIGVMPDLVLDMFINGYYLNVYKTQTTDVNRTYQEKDRRGGIFDAVFTRGDQSKLLTSRHDFKEKNLKEISDLIKKELTEGKALGLSHTYANVRISHVINLWGADFDSNGNLKAIYVTDSDSNASIGMKKYGVGVNSAGKVAISAKEIKEDNIGAQVLGLFTLSTGQDSWNQTN
B7: PRT-286 (protein)
chain: B6 chain with G117N, G253F, A259S
B8: PRT-39 (protein)
chain: MANQEIRYSEVTPYHVTSVWTKGVTPPANFTQGEDVFHAPYVANQGWYDITKTFNGKDDLLCGAATAGNMLHWWFDQNKDQIKRYLEEHPEKQKINFNGEQMFDVKEAIDTKNHQLDSKLFEYFKEKAFPYLSTKHLGVFPDHVIDMFINGYRLSLTNHGPTPVKEGSKDPRGGIFDAVFTRGDQSKLLTSRHDFKEKNLKEISDLIKQELTEGKALGLSHTYANVRINHVINLWGADFDSNGNLKAIYVTDSDSNASIGMKKYFVGVNSAGKVAISAKEIKEDNIGAQVLGLFTLSTGQDSWNQTN
B9: PRT-40 (protein)
chain: B8 chain with I145L, Q209K
B10: PRT-2 (protein)
chain: MANQEIRYSEVTPYHVTSVWTKGVTPPAKFTQGEDVFHAPYVANQGWYDITKTFNGKDDLLCGAATAGNMLHWWFDQNKEKIEAYLKKHPDKQKIMFGDQELLDVRKVINTKGDQTNSELFNYFRDKAFPGLSARRIGVMPDLVLDMFINGYYLNVYKTQTTDVNRTYQEKDRRGGIFDAVFTRGDQSKLLTSRHDFKEKNLKEISDLIKKELTEGKALGLSHTYANVRINHVINLWGADFDSNGNLKAIYVTDSDSNASIGMKKYFVGVNSAGKVAISAKEIKEDNIGAQVLGLFTLSTGQDSWNQTN
B11: PRT-589 (protein)
chain: MRNQTTTYSEVTPSHITSVWTKGVTPPEQFIQGEDVFHAPYIANQGWYDITKTFNGKDDLLCGAATAGNMLHWWFDQNKEQIENYLKKHPEKQKINFNNEEMFDVREAINTKDSQTDSALFSYFKDKAFPYLSAKHLGVFPDHVIDMFINGYRLSLTNHDKTDVNRGTKDPRGGIFDAVFTRGDQSKLLTARHDFKNKTLKEISDLIKQELTEGKALGLSHTYANVRINHVINLWGADFDAEGNLEAIYVTDSDSNASIGMKKYYVGVNSAGKVAISAKKIEGDNIGAQVLGLFTLSTGQDIWQQTNLEHHHHHH
B12: PRT-539 (protein)
chain: MANQEIRYSKNENPNVTIKWVHGIGEPTQAEKEKIEFYWYETNTTKFFNNRKVTHLGDSNQCWAKTASNMLHWWFEQNKENINKYIEKKNITGKINFNGEQMFDVKEGIDDNQEKEKSYIANTFRTKKAHNLSTKHKGDYIISGLAWYLYGLNNFKNAHGPTPVKKKPKFYGPALFKDVFNRGDGNTPIKEETDFKEYTKKEFEDILKEALDSKKAIGINIYGSNVGYGHAITLWGAAFDEDNNIIAIYVVDNNFKFENRIFPYGIWYEKEGRPYLFNYEINSFVKNRYVGEITTLDKGEAQWQETNLEHHHHHH
B13: PRT-529 (protein)
chain: MANQEIRYSEETPKTITSVWTKGVTPPTDFIKNEDVLHAPYIANQGWYDITKTFNGKDDLLCGAATAGNMLHWWFDQNKEEIENYLKKHPEKQKINFNGEQMFDVKEAIDTKDSQTDSALFEYFKDKAFPNLSTKHLGVMPDLVLDMFINGYYLSLGKHGPTPVKRGTKDPRGGIFDAVFTRGDQTKLLTARHDFKEKTLNEISDLIKQELTEGKALALSHTYANVRINHVINLWGADFNSEGNLEAIYVTDSDSNASIGMKKYYVGVNAAGKVAISAKEIEGDNIGAQVLGLFTLSTGQDIWEQTNLEHHHHHH
B14: PRT-277 (protein)
chain: MVTSVWTKGVTPPTDFIYGEDVLHAPYKAGQGWYDITKLFNGKDNLLCGAATAGNMLHWWFDQNKEQIENYLKKHPEKQKIIFNNQELFDLKAAIDTKDSQLDSKLFEYFLEKAFPNLSTKHLGVFPDHVIDMFINGYRLSLLNHGPTPVKRGSKDKRGGIFDAVFTRGVQSKLLTNRHDLKNKTLKEISDLIKQELTEGKALGISHTYANGRINHVINLWGADFDAEGNLEAIAVTDSDTNASIGMKKYFVGVNSSGKVAISAKEIEEDNIGAQVLGLFTLSTGQDIWNQTN
B15: PRT-278 (protein)
chain: B14 chain with E108D, L111K, N117Y, L143T, G212V, A235Y, A243P

biological target: pooled human IgG

| Protein | Enzyme Activity Endpoint Assay: Fab′2 [ng/µL] | Enzyme Activity Endpoint Assay: Fc [ng/µL] | Enzyme Activity Endpoint Assay: IgG [ng/µL] | Enzyme Activity Endpoint Assay: scIgG [ng/µL] |
| --- | --- | --- | --- | --- |
| B1 | 439 | 294 | 45 | 264 |
| B2 | 700 | 281 | 0 | 0 |
| B3 | 603 | 315 | 0 | 0 |
| B4 | 816 | 450 | 0 | 0 |
| B5 | 720 | 529 | 0 | 0 |
| B6 | 0 | 0 | 1320 | 0 |
| B7 | 650 | 352 | 0 | 0 |
| B8 | 39 | 116 | 9 | 19 |
| B9 | 42 | 108 | 14 | 13 |
| B10 | 47 | 94 | 21 | 0 |
| B11 | 863 | 352 | 0 | 0 |
| B12 | 0 | 0 | 1400 | 0 |
| B13 | 0 | 177 | 508 | 350 |
| B14 | 19 | 160 | 401 | 705 |
| B15 | 547 | 315 | 0 | 0 |

Reference: patent US20250027068
